T1: Yhr016c SH3 (YSC84_YEAST), P32793
T1 chain: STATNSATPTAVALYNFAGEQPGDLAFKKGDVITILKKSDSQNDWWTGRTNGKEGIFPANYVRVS

T2: Boi1 SH3 (BOI1_YEAST), P38041
T2 chain: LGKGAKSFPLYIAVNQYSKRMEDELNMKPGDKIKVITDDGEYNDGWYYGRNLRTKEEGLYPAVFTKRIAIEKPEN

T3: Abp1 SH3 (ABP1_YEAST), P15891
T3 chain: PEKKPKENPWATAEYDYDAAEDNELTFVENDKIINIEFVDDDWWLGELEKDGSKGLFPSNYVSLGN

T4: Boi2 SH3 (BOI2_YEAST), P39969
T4 chain: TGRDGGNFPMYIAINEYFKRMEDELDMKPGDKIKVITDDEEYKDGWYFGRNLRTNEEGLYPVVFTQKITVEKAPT

T5: Rvs167 SH3 (RV167_YEAST), P39743
T5 chain: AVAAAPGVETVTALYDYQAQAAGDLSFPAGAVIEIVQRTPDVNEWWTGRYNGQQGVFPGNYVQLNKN

T6: Myo5 SH3 (MYO5_YEAST), Q04439
T6 chain: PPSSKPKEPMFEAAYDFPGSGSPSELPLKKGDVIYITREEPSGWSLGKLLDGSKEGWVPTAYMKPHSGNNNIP

T7: Yfr024 SH3 (LSB3_YEAST), P43603
T7 chain: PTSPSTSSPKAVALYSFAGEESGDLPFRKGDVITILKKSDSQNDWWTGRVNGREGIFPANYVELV

T8: BOI2 SH3 domain (Saccharomyces cerevisiae)
T8 chain: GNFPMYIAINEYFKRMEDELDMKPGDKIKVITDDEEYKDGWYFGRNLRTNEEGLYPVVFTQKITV


Target: T1, Yhr016c SH3 (YSC84_YEAST), P32793
Assay: SPOT array
Conditions: not given

| Binder | normalised SPOT signal, Boehringer light units (BLU); mean over the file's lines of this peptide |
| --- | --- |
| LQESKTVPQSPKKP [YOR058C 189-202] | 9.2 |
| YTYSRNEPVIPTKP [YNL139C 1275-1288] | 15.9 |
| EYSPRPSPWLPSKP [YDR151C 76-89] | 107 |
| ENTPRPNPTQPRKP [YDR359C 772-785] | 54.9 |
| LKDPKSFPPPPLKP [YBR108W 80-93] | 6.5 |
| KRNSKHAPFIPVKP [YPR095C 154-167] | 150 |
| VKPTKLEPENPQKP [YFL054C 234-247] | 22.4 |
| SKDKKTKPTPPPKP [YNL020C 602-615] | 22.7 |
| VASSRTEPSTPSRP [YJL095W 1074-1087] | 602 |
| RPKRRAPPPVPKKP [YIR003W 383-396] | 114 |
| TIEARVHPEPPNKP [YDR330W 403-416] | 1 |
| NIFQKQLPKMPKEY [YGR252W 122-135] | 4960 |
| NGTWKYNPTVPNEL [YPR151C 143-156] | 22.7 |

Target: T2, Boi1 SH3 (BOI1_YEAST), P38041
Assay: SPOT array
Conditions: not given

| Binder | normalised SPOT signal, Boehringer light units (BLU); mean over the file's lines of this peptide |
| --- | --- |
| LQESKTVPQSPKKP [YOR058C 189-202] | 22.8 |
| YTYSRNEPVIPTKP [YNL139C 1275-1288] | -0 |
| EYSPRPSPWLPSKP [YDR151C 76-89] | 184 |
| ENTPRPNPTQPRKP [YDR359C 772-785] | 154 |
| LKDPKSFPPPPLKP [YBR108W 80-93] | 55.3 |
| KRNSKHAPFIPVKP [YPR095C 154-167] | 412 |
| VKPTKLEPENPQKP [YFL054C 234-247] | 49.7 |
| SKDKKTKPTPPPKP [YNL020C 602-615] | 353 |
| VASSRTEPSTPSRP [YJL095W 1074-1087] | 120 |
| RPKRRAPPPVPKKP [YIR003W 383-396] | 1170 |
| TIEARVHPEPPNKP [YDR330W 403-416] | 0 |
| NIFQKQLPKMPKEY [YGR252W 122-135] | 646 |
| NGTWKYNPTVPNEL [YPR151C 143-156] | 72.4 |

Target: T3, Abp1 SH3 (ABP1_YEAST), P15891
Assay: SPOT array
Conditions: not given

| Binder | normalised SPOT signal, Boehringer light units (BLU); mean over the file's lines of this peptide |
| --- | --- |
| LQESKTVPQSPKKP [YOR058C 189-202] | 224 |
| YTYSRNEPVIPTKP [YNL139C 1275-1288] | 224 |
| EYSPRPSPWLPSKP [YDR151C 76-89] | 519 |
| ENTPRPNPTQPRKP [YDR359C 772-785] | 102 |
| LKDPKSFPPPPLKP [YBR108W 80-93] | 124 |
| KRNSKHAPFIPVKP [YPR095C 154-167] | 1030 |
| VKPTKLEPENPQKP [YFL054C 234-247] | 42.5 |
| SKDKKTKPTPPPKP [YNL020C 602-615] | 77200 |
| VASSRTEPSTPSRP [YJL095W 1074-1087] | 184 |
| RPKRRAPPPVPKKP [YIR003W 383-396] | 80000 |
| TIEARVHPEPPNKP [YDR330W 403-416] | 36.2 |

Target: T4, Boi2 SH3 (BOI2_YEAST), P39969
Assay: SPOT array
Conditions: not given

| Binder | normalised SPOT signal, Boehringer light units (BLU); mean over the file's lines of this peptide |
| --- | --- |
| LQESKTVPQSPKKP [YOR058C 189-202] | 15.3 |
| YTYSRNEPVIPTKP [YNL139C 1275-1288] | -0 |
| EYSPRPSPWLPSKP [YDR151C 76-89] | 22.4 |
| ENTPRPNPTQPRKP [YDR359C 772-785] | 0 |
| LKDPKSFPPPPLKP [YBR108W 80-93] | 45.6 |
| KRNSKHAPFIPVKP [YPR095C 154-167] | 37 |
| VKPTKLEPENPQKP [YFL054C 234-247] | 8.7 |
| SKDKKTKPTPPPKP [YNL020C 602-615] | 40.8 |
| VASSRTEPSTPSRP [YJL095W 1074-1087] | 10.5 |
| RPKRRAPPPVPKKP [YIR003W 383-396] | 26.1 |
| TIEARVHPEPPNKP [YDR330W 403-416] | 20.8 |
| NIFQKQLPKMPKEY [YGR252W 122-135] | 203 |
| NGTWKYNPTVPNEL [YPR151C 143-156] | 24.2 |

Target: T5, Rvs167 SH3 (RV167_YEAST), P39743
Assay: SPOT array
Conditions: not given

| Binder | normalised SPOT signal, Boehringer light units (BLU); mean over the file's lines of this peptide |
| --- | --- |
| LQESKTVPQSPKKP [YOR058C 189-202] | 50.4 |
| YTYSRNEPVIPTKP [YNL139C 1275-1288] | 68.4 |
| EYSPRPSPWLPSKP [YDR151C 76-89] | 54.8 |
| ENTPRPNPTQPRKP [YDR359C 772-785] | 53.6 |
| LKDPKSFPPPPLKP [YBR108W 80-93] | 78.4 |
| KRNSKHAPFIPVKP [YPR095C 154-167] | 68.7 |
| VKPTKLEPENPQKP [YFL054C 234-247] | 28 |
| SKDKKTKPTPPPKP [YNL020C 602-615] | 71.4 |
| VASSRTEPSTPSRP [YJL095W 1074-1087] | 76.3 |
| RPKRRAPPPVPKKP [YIR003W 383-396] | 1050 |
| TIEARVHPEPPNKP [YDR330W 403-416] | 26.6 |
| NIFQKQLPKMPKEY [YGR252W 122-135] | 555 |
| NGTWKYNPTVPNEL [YPR151C 143-156] | 87.9 |

Target: T6, Myo5 SH3 (MYO5_YEAST), Q04439
Assay: SPOT array
Conditions: not given

| Binder | normalised SPOT signal, Boehringer light units (BLU); mean over the file's lines of this peptide |
| --- | --- |
| LQESKTVPQSPKKP [YOR058C 189-202] | 159 |
| YTYSRNEPVIPTKP [YNL139C 1275-1288] | 210 |
| EYSPRPSPWLPSKP [YDR151C 76-89] | 73.7 |
| ENTPRPNPTQPRKP [YDR359C 772-785] | 137 |
| LKDPKSFPPPPLKP [YBR108W 80-93] | 253 |
| KRNSKHAPFIPVKP [YPR095C 154-167] | 382 |
| VKPTKLEPENPQKP [YFL054C 234-247] | 91.3 |
| SKDKKTKPTPPPKP [YNL020C 602-615] | 180 |
| VASSRTEPSTPSRP [YJL095W 1074-1087] | 178 |
| RPKRRAPPPVPKKP [YIR003W 383-396] | 67400 |
| TIEARVHPEPPNKP [YDR330W 403-416] | 375 |
| NIFQKQLPKMPKEY [YGR252W 122-135] | 276 |
| NGTWKYNPTVPNEL [YPR151C 143-156] | 173 |

Target: T7, Yfr024 SH3 (LSB3_YEAST), P43603
Assay: SPOT array
Conditions: not given

| Binder | normalised SPOT signal, Boehringer light units (BLU); mean over the file's lines of this peptide |
| --- | --- |
| LQESKTVPQSPKKP [YOR058C 189-202] | 19.6 |
| YTYSRNEPVIPTKP [YNL139C 1275-1288] | 242 |
| EYSPRPSPWLPSKP [YDR151C 76-89] | 668 |
| ENTPRPNPTQPRKP [YDR359C 772-785] | 205 |
| LKDPKSFPPPPLKP [YBR108W 80-93] | 62.9 |
| KRNSKHAPFIPVKP [YPR095C 154-167] | 751 |
| VKPTKLEPENPQKP [YFL054C 234-247] | 17 |
| SKDKKTKPTPPPKP [YNL020C 602-615] | 211 |
| VASSRTEPSTPSRP [YJL095W 1074-1087] | 3610 |
| RPKRRAPPPVPKKP [YIR003W 383-396] | 6360 |
| TIEARVHPEPPNKP [YDR330W 403-416] | 44.2 |
| NIFQKQLPKMPKEY [YGR252W 122-135] | 392 |
| NGTWKYNPTVPNEL [YPR151C 143-156] | 381 |

Target: Sho1 SH3 (SHO1_YEAST), P40073
Sequence (P40073 295-366): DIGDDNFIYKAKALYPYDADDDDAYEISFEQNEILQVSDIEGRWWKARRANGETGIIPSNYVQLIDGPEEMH
Assay: SPOT array
Conditions: not given

| Binder | normalised SPOT signal, Boehringer light units (BLU); mean over the file's lines of this peptide |
| --- | --- |
| LQESKTVPQSPKKP [YOR058C 189-202] | 37.8 |
| YTYSRNEPVIPTKP [YNL139C 1275-1288] | 44.7 |
| EYSPRPSPWLPSKP [YDR151C 76-89] | 34.7 |
| ENTPRPNPTQPRKP [YDR359C 772-785] | 13.1 |
| LKDPKSFPPPPLKP [YBR108W 80-93] | 78.9 |
| KRNSKHAPFIPVKP [YPR095C 154-167] | 86.4 |
| VKPTKLEPENPQKP [YFL054C 234-247] | 23.8 |
| SKDKKTKPTPPPKP [YNL020C 602-615] | 331 |
| VASSRTEPSTPSRP [YJL095W 1074-1087] | 62.9 |
| RPKRRAPPPVPKKP [YIR003W 383-396] | 5190 |
| TIEARVHPEPPNKP [YDR330W 403-416] | 32.7 |
| NIFQKQLPKMPKEY [YGR252W 122-135] | 16700 |
| NGTWKYNPTVPNEL [YPR151C 143-156] | 3.7 |

Target: T8, BOI2 SH3 domain (Saccharomyces …)
Assay: SPR
Conditions: modification not given

| Binder | Kd |
| --- | --- |
| GTTNRGPPPLPPRA | > 100 µM |
| RGPPPLPPRANVQP | > 100 µM |
| NAPERAVPILPPRN [YBR108W peptide …] | > 100 µM |

From paper PMC314469, “Protein Interaction Networks by Proteome Peptide Scanning” (PLoS Biology, 2004)
